# Measured values published in IntAct's records for PubMed 20594350.
# B1: Cell division cycle and apoptosis regulator protein 1 (Homo sapiens), Q8IX12 (parent)
# chain: MAQFGGQKNPPWATQFTATAVSQPAALGVQQPSLLGASPTIYTQQTALAAAGLTTQTPANYQLTQTAALQQQAAAAAAALQQQYSQPQQALYSVQQQLQQPQQTLLTQPAVALPTSLSLSTPQPTAQITVSYPTPRSSQQQTQPQKQRVFTGVVTKLHDTFGFVDEDVFFQLSAVKGKTPQVGDRVLVEATYNPNMPFKWNAQRIQTLPNQNQSQTQPLLKTPPAVLQPIAPQTTFGVQTQPQPQSLLQAQISAASITPLLQTQPQPLLQQPQQKAGLLQPPVRIVSQPQPARRLDPPSRFSGRNDRGDQVPNRKDDRSRERERERRRSRERSPQRKRSRERSPRRERERSPRRVRRVVPRYTVQFSKFSLDCPSCDMMELRRRYQNLYIPSDFFDAQFTWVDAFPLSRPFQLGNYCNFYVMHREVESLEKNMAILDPPDADHLYSAKVMLMASPSMEDLYHKSCALAEDPQELRDGFQHPARLVKFLVGMKGKDEAMAIGGHWSPSLDGPDPEKDPSVLIKTAIRCCKALTGIDLSVCTQWYRFAEIRYHRPEETHKGRTVPAHVETVVLFFPDVWHCLPTRSEWETLSRGYKQQLVEKLQGERKEADGEQDEEEKDDGEAKEISTPTHWSKLDPKTMKVNDLRKELESRALSSKGLKSQLIARLTKQLKVEEQKEEQKELEKSEKEEDEDDDRKSEDDKEEEERKRQEEIERQRRERRYILPDEPAIIVHPNWAAKSGKFDCSIMSLSVLLDYRLEDNKEHSFEVSLFAELFNEMLQRDFGVRIYKSLLSLPEKEDKKEKDKKSKKDERKDKKEERDDETDEPKPKRRKSGDDKDKKEDRDERKKEDKRKDDSKDDDETEEDNNQDEYDPMEAEEAEDEEDDRDEEEMTKRDDKRDINRYCKERPSKDKEKEKTQMITINRDLLMAFVYFDQSHCGYLLEKDLEEILYTLGLHLSRAQVKKLLNKVVLRESCFYRKLTDTSKDEENHEESESLQEDMLGNRLLLPTPTVKQESKDVEENVGLIVYNGAMVDVGSLLQKLEKSEKVRAEVEQKLQLLEEKTDEDEKTILNLENSNKSLSGELREVKKDLSQLQENLKISENMNLQFENQMNKTIRNLSTVMDEIHTVLKKDNVKNEDKDQKSKENGASV
# Variants of: B1
# Settings: with wwtr1_mouse Wwtr1, Q9EPK5
# Sequence of wwtr1_mouse Wwtr1, Q9EPK5 (Q9EPK5 whole entry): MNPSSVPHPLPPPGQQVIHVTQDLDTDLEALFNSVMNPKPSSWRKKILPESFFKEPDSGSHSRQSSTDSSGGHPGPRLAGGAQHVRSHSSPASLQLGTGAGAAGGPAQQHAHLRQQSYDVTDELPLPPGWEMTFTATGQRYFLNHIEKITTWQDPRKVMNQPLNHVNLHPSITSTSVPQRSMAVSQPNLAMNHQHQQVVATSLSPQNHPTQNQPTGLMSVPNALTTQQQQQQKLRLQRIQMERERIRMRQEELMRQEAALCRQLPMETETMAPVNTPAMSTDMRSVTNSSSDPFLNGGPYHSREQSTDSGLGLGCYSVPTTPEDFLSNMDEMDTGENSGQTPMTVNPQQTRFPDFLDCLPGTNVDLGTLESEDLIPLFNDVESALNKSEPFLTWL
row,effect of a mutation on the interaction,Variant
1,increasing interaction,T667D
2,decreasing interaction,T667A
